In patent publication US20170137513A1:

Target: T1, monkey CD22 (Rhesus monkey) (UniProt H9G1X2)
T1 sequence: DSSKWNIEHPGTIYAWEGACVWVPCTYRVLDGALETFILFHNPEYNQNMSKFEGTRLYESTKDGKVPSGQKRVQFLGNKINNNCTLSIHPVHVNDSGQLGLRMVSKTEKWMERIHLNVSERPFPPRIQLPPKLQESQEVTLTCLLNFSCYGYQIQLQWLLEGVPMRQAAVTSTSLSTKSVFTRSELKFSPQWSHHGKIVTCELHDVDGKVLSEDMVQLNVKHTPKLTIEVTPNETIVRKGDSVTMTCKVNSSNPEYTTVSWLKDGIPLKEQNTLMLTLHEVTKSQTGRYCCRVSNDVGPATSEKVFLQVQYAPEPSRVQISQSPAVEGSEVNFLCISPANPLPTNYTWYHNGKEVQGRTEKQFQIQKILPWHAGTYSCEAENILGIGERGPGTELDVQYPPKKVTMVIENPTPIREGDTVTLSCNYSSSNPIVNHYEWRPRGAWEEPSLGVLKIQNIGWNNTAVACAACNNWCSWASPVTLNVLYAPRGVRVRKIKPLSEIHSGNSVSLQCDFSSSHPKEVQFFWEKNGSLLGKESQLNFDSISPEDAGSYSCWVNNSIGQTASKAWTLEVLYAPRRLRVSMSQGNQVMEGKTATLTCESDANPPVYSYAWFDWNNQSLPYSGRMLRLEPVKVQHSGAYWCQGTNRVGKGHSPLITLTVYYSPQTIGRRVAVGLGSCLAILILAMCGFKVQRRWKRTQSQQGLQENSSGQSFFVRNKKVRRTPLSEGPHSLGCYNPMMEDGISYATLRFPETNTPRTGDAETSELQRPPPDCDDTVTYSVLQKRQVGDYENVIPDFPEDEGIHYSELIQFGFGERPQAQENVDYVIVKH
Assay: flow cytometry, direct immunofluorescence on Rhesus monkey PBMC

B1: RFB4 monoclonal antibody (antibody, V domains shown)
VH: EVQLVESGGGLVKPGGSLKLSCAASGFAFSIYDMSWVRQTPEKRLEWVAYISSGGGTTYYPDTVKGRFTISRDNAKNTLYLQMSSLKSEDTAMYYCARHSGYGSSYGVLFAYWGQGTLVTVSA
VL: DIQMTQTTSSLSASLGDRVTISCRASQDISNYLNWYQQKPDGTVKLLIYYTSILHSGVPSRFSGSGSGTDYSLTISNLEQEDFATYFCQQGNTLPWTFGGGTKLEIK
percent positive cells: 31.3%
